Results as given in patent US20180118786A1 (ECOLE POLYTECHNIQUE FEDERALE DE LAUSANNE EPFL, published 2018).
Starred links: 1 amine or outer side, 2 acyl side, 3 side chain; linkers in the order of their positions; H or OH if unused. Positions of bridges follow the written chain, without caps; N, C: chain ends. Non-standard residues stand in square brackets, D forms with d. No end group written: not given here. TATA = O=C(CC[*:1])N1CN(C(=O)CC[*:2])CN(C(=O)CC[*:3])C1; Phe(4-guanidino) = N=C(N)Nc1ccc(C[C@H](N)C(=O)O)cc1; hArg = N=C(N)NCCCC[C@H](N)C(=O)O; Agb = N=C(N)NCC[C@H](N)C(=O)O

How the values were obtained:
[1] = target: T1, human β-FXIIa (HFXIIAB; Molecular Innovations) (human, UniProt P00748 354-362; P00748 373-615, limits assumed); assay: protease inhibition assay
T1 construct: domain: catalytic domain; Bought; also called human b-FXIIa; human FXIIa

[2] = target: T1, human β-FXIIa (HFXIIAB; Molecular …); assay: protease inhibition assay, fluorogenic substrate

T1 sequence (P00748 373-615 limits assumed, one chain of several): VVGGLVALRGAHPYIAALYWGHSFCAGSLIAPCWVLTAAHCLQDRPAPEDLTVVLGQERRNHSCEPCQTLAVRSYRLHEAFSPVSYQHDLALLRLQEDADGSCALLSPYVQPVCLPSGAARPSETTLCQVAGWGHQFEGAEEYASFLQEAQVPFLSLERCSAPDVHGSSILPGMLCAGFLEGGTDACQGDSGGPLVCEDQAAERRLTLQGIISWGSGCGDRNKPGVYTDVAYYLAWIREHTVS

B1: peptide 64 (FXII618, Arg1 to isoleucine) (peptide)
peptide: ICFRLPCRQLRCR-NH2
modifications: linker 2-7-12 via TATA; N-terminus assumed
SMILES: CC[C@H](C)[C@H](N)C(=O)N[C@H]1CSCCC(=O)N2CN3CN(C2)C(=O)CCSC[C@H](NC(=O)[C@@H]2CCCN2C(=O)[C@H](CC(C)C)NC(=O)[C@H](CCCNC(=N)N)NC(=O)[C@H](Cc2ccccc2)NC1=O)C(=O)N[C@@H](CCCNC(=N)N)C(=O)N[C@@H](CCC(N)=O)C(=O)N[C@@H](CC(C)C)C(=O)N[C@@H](CCCNC(=N)N)C(=O)N[C@H](C(=O)N[C@@H](CCCNC(=N)N)C(N)=O)CSCCC3=O
notes: Number tied to residue by the order of the list
In the case of B1, the “fold reduction of affinity vs peptide 1” value [1] is reported as > 5 fold.

B2: peptide 65 (FXII618, Arg1 to valine) (peptide)
peptide: VCFRLPCRQLRCR-NH2
modifications: linker 2-7-12 via TATA; N-terminus assumed
SMILES: CC(C)C[C@@H]1NC(=O)[C@H](CCC(N)=O)NC(=O)[C@H](CCCNC(=N)N)NC(=O)[C@@H]2CSCCC(=O)N3CN(CN(C3)C(=O)CCSC[C@H](NC(=O)[C@@H](N)C(C)C)C(=O)N[C@@H](Cc3ccccc3)C(=O)N[C@@H](CCCNC(=N)N)C(=O)N[C@@H](CC(C)C)C(=O)N3CCC[C@H]3C(=O)N2)C(=O)CCSC[C@@H](C(=O)N[C@@H](CCCNC(=N)N)C(N)=O)NC(=O)[C@H](CCCNC(=N)N)NC1=O
notes: as for B1
For B2, the “fold reduction of affinity vs peptide 1” value [1] was > 5 fold.

B3: peptide 66 (FXII618, Arg1 to alanine) (peptide)
peptide: ACFRLPCRQLRCR-NH2
modifications: linker 2-7-12 via TATA; N-terminus assumed
SMILES: CC(C)C[C@@H]1NC(=O)[C@H](CCC(N)=O)NC(=O)[C@H](CCCNC(=N)N)NC(=O)[C@@H]2CSCCC(=O)N3CN(CN(C3)C(=O)CCSC[C@@H](C(=O)N[C@@H](CCCNC(=N)N)C(N)=O)NC(=O)[C@H](CCCNC(=N)N)NC1=O)C(=O)CCSC[C@H](NC(=O)[C@H](C)N)C(=O)N[C@@H](Cc1ccccc1)C(=O)N[C@@H](CCCNC(=N)N)C(=O)N[C@@H](CC(C)C)C(=O)N1CCC[C@H]1C(=O)N2
notes: as for B1
With B3 the “fold reduction of affinity vs peptide 1” value [1] was > 5 fold.

B4: peptide 67 (FXII618, Arg1 to lysine) (peptide)
peptide: KCFRLPCRQLRCR-NH2
modifications: linker 2-7-12 via TATA; N-terminus assumed
SMILES: CC(C)C[C@@H]1NC(=O)[C@H](CCC(N)=O)NC(=O)[C@H](CCCNC(=N)N)NC(=O)[C@@H]2CSCCC(=O)N3CN(CN(C3)C(=O)CCSC[C@H](NC(=O)[C@@H](N)CCCCN)C(=O)N[C@@H](Cc3ccccc3)C(=O)N[C@@H](CCCNC(=N)N)C(=O)N[C@@H](CC(C)C)C(=O)N3CCC[C@H]3C(=O)N2)C(=O)CCSC[C@@H](C(=O)N[C@@H](CCCNC(=N)N)C(N)=O)NC(=O)[C@H](CCCNC(=N)N)NC1=O
For B4, the Ki [2] was 27.4 nM.

B5: peptide 85 (FXII618, Gln9 to glycine) (peptide)
peptide: RCFRLPCRGLRCR-NH2
modifications: linker 2-7-12 via TATA; N-terminus assumed
SMILES: CC(C)C[C@@H]1NC(=O)CNC(=O)[C@H](CCCNC(=N)N)NC(=O)[C@@H]2CSCCC(=O)N3CN(CN(C3)C(=O)CCSC[C@H](NC(=O)[C@@H](N)CCCNC(=N)N)C(=O)N[C@@H](Cc3ccccc3)C(=O)N[C@@H](CCCNC(=N)N)C(=O)N[C@@H](CC(C)C)C(=O)N3CCC[C@H]3C(=O)N2)C(=O)CCSC[C@@H](C(=O)N[C@@H](CCCNC(=N)N)C(N)=O)NC(=O)[C@H](CCCNC(=N)N)NC1=O
With B5 the “fold reduction of affinity vs FXII618” value [1] was ~200 fold.

B6: peptide 87 (FXII618, Leu10 to glycine) (peptide)
peptide: RCFRLPCRQGRCR-NH2
modifications: linker 2-7-12 via TATA; N-terminus assumed
SMILES: CC(C)C[C@@H]1NC(=O)[C@H](CCCNC(=N)N)NC(=O)[C@H](Cc2ccccc2)NC(=O)[C@@H](NC(=O)[C@@H](N)CCCNC(=N)N)CSCCC(=O)N2CN3CN(C2)C(=O)CCSC[C@H](NC(=O)[C@@H]2CCCN2C1=O)C(=O)N[C@@H](CCCNC(=N)N)C(=O)N[C@@H](CCC(N)=O)C(=O)NCC(=O)N[C@@H](CCCNC(=N)N)C(=O)N[C@H](C(=O)N[C@@H](CCCNC(=N)N)C(N)=O)CSCCC3=O
For B6, the “fold reduction of affinity vs FXII618” value [1] was ~200 fold.

B7: peptide 7 (peptide 2, Phe3 to valine) (peptide)
peptide: RCVRLPCRQLRCRW-NH2
modifications: linker 2-7-12 via TATA; N-terminus assumed
SMILES: CC(C)C[C@@H]1NC(=O)[C@H](CCC(N)=O)NC(=O)[C@H](CCCNC(=N)N)NC(=O)[C@@H]2CSCCC(=O)N3CN(CN(C3)C(=O)CCSC[C@H](NC(=O)[C@@H](N)CCCNC(=N)N)C(=O)N[C@@H](C(C)C)C(=O)N[C@@H](CCCNC(=N)N)C(=O)N[C@@H](CC(C)C)C(=O)N3CCC[C@H]3C(=O)N2)C(=O)CCSC[C@@H](C(=O)N[C@@H](CCCNC(=N)N)C(=O)N[C@@H](Cc2c[nH]c3ccccc23)C(N)=O)NC(=O)[C@H](CCCNC(=N)N)NC1=O
notes: as for B1
B7 was tested, and the “fold reduction of activity vs peptide 2” value [1] was > 10 fold.

B8: peptide 8 (peptide 2, Phe3 to isoleucine) (peptide)
peptide: RCIRLPCRQLRCRW-NH2
modifications: linker 2-7-12 via TATA; N-terminus assumed
SMILES: CC[C@H](C)[C@@H]1NC(=O)[C@@H](NC(=O)[C@@H](N)CCCNC(=N)N)CSCCC(=O)N2CN3CN(C2)C(=O)CCSC[C@H](NC(=O)[C@@H]2CCCN2C(=O)[C@H](CC(C)C)NC(=O)[C@H](CCCNC(=N)N)NC1=O)C(=O)N[C@@H](CCCNC(=N)N)C(=O)N[C@@H](CCC(N)=O)C(=O)N[C@@H](CC(C)C)C(=O)N[C@@H](CCCNC(=N)N)C(=O)N[C@H](C(=O)N[C@@H](CCCNC(=N)N)C(=O)N[C@@H](Cc1c[nH]c2ccccc12)C(N)=O)CSCCC3=O
notes: as for B1
With B8 the “fold reduction of activity vs peptide 2” value [1] was > 10 fold.

B9: peptide 11 (peptide 2, Leu5 to valine) (peptide)
peptide: RCFRVPCRQLRCRW-NH2
modifications: linker 2-7-12 via TATA; N-terminus assumed
SMILES: CC(C)C[C@@H]1NC(=O)[C@H](CCC(N)=O)NC(=O)[C@H](CCCNC(=N)N)NC(=O)[C@@H]2CSCCC(=O)N3CN(CN(C3)C(=O)CCSC[C@H](NC(=O)[C@@H](N)CCCNC(=N)N)C(=O)N[C@@H](Cc3ccccc3)C(=O)N[C@@H](CCCNC(=N)N)C(=O)N[C@@H](C(C)C)C(=O)N3CCC[C@H]3C(=O)N2)C(=O)CCSC[C@@H](C(=O)N[C@@H](CCCNC(=N)N)C(=O)N[C@@H](Cc2c[nH]c3ccccc23)C(N)=O)NC(=O)[C@H](CCCNC(=N)N)NC1=O
For B9, the “fold reduction of affinity vs peptide 2” value [1] was > 50 fold.

B10: peptide 12 (peptide 2, Leu5 to isoleucine) (peptide)
peptide: RCFRIPCRQLRCRW-NH2
modifications: linker 2-7-12 via TATA; N-terminus assumed
SMILES: CC[C@H](C)[C@@H]1NC(=O)[C@H](CCCNC(=N)N)NC(=O)[C@H](Cc2ccccc2)NC(=O)[C@@H](NC(=O)[C@@H](N)CCCNC(=N)N)CSCCC(=O)N2CN3CN(C2)C(=O)CCSC[C@H](NC(=O)[C@@H]2CCCN2C1=O)C(=O)N[C@@H](CCCNC(=N)N)C(=O)N[C@@H](CCC(N)=O)C(=O)N[C@@H](CC(C)C)C(=O)N[C@@H](CCCNC(=N)N)C(=O)N[C@H](C(=O)N[C@@H](CCCNC(=N)N)C(=O)N[C@@H](Cc1c[nH]c2ccccc12)C(N)=O)CSCCC3=O
In the case of B10, the “fold reduction of affinity vs peptide 2” value [1] is reported as > 50 fold.

B11: peptide 21 (peptide 2, Gln9 to aspartate) (peptide)
peptide: RCFRLPCRDLRCRW-NH2
modifications: linker 2-7-12 via TATA; N-terminus assumed
SMILES: CC(C)C[C@@H]1NC(=O)[C@H](CC(=O)O)NC(=O)[C@H](CCCNC(=N)N)NC(=O)[C@@H]2CSCCC(=O)N3CN(CN(C3)C(=O)CCSC[C@H](NC(=O)[C@@H](N)CCCNC(=N)N)C(=O)N[C@@H](Cc3ccccc3)C(=O)N[C@@H](CCCNC(=N)N)C(=O)N[C@@H](CC(C)C)C(=O)N3CCC[C@H]3C(=O)N2)C(=O)CCSC[C@@H](C(=O)N[C@@H](CCCNC(=N)N)C(=O)N[C@@H](Cc2c[nH]c3ccccc23)C(N)=O)NC(=O)[C@H](CCCNC(=N)N)NC1=O
With B11 the “fold reduction of activity vs peptide 2” value [1] was 54 fold.

B12: peptide 26 (peptide 2, Leu10 to isoleucine) (peptide)
peptide: RCFRLPCRQIRCRW-NH2
modifications: linker 2-7-12 via TATA; N-terminus assumed
SMILES: CC[C@H](C)[C@@H]1NC(=O)[C@H](CCC(N)=O)NC(=O)[C@H](CCCNC(=N)N)NC(=O)[C@@H]2CSCCC(=O)N3CN(CN(C3)C(=O)CCSC[C@H](NC(=O)[C@@H](N)CCCNC(=N)N)C(=O)N[C@@H](Cc3ccccc3)C(=O)N[C@@H](CCCNC(=N)N)C(=O)N[C@@H](CC(C)C)C(=O)N3CCC[C@H]3C(=O)N2)C(=O)CCSC[C@@H](C(=O)N[C@@H](CCCNC(=N)N)C(=O)N[C@@H](Cc2c[nH]c3ccccc23)C(N)=O)NC(=O)[C@H](CCCNC(=N)N)NC1=O
B12 was tested, and the “fold reduction of activity vs peptide 2” value [1] was 8 fold.

H-RCF[homolysine]LPCRQLRCRW-NH2 (linker 2-7-12 via TATA) [peptide 38 (peptide 2, Arg4 to homolysine)] was tested, and the “fold reduction of affinity vs peptide 2” value [1] was ≥ 5 fold.

B13: peptide 39 (peptide 2, Arg4 to homoarginine) (peptide)
peptide: H-RCF[hArg]LPCRQLRCRW-NH2
modifications: linker 2-7-12 via TATA
notes: as for B1
For B13, the “fold reduction of affinity vs peptide 2” value [1] was ≥ 5 fold.

B14: peptide 40 (peptide 2, Arg4 to norarginine) (peptide)
peptide: RCF[Agb]LPCRQLRCRW-NH2
modifications: linker 2-7-12 via TATA
notes: as for B1
B14 was tested, and the “fold reduction of affinity vs peptide 2” value [1] was ≥ 5 fold.

B15: peptide 41 (peptide 2, Arg4 to 4-guanidinophenylalanine) (peptide)
peptide: RCF[Phe(4-guanidino)]LPCRQLRCRW-NH2
modifications: linker 2-7-12 via TATA; N-terminus assumed
SMILES: CC(C)C[C@@H]1NC(=O)[C@H](CCC(N)=O)NC(=O)[C@H](CCCNC(=N)N)NC(=O)[C@@H]2CSCCC(=O)N3CN(CN(C3)C(=O)CCSC[C@H](NC(=O)[C@@H](N)CCCNC(=N)N)C(=O)N[C@@H](Cc3ccccc3)C(=O)N[C@@H](Cc3ccc(NC(=N)N)cc3)C(=O)N[C@@H](CC(C)C)C(=O)N3CCC[C@H]3C(=O)N2)C(=O)CCSC[C@@H](C(=O)N[C@@H](CCCNC(=N)N)C(=O)N[C@@H](Cc2c[nH]c3ccccc23)C(N)=O)NC(=O)[C@H](CCCNC(=N)N)NC1=O
notes: as for B1
For B15, the “fold reduction of affinity vs peptide 2” value [1] was ≥ 5 fold.
